Columns and labels:
NlpA-ZZ fusion protein [1] = test: flow cytometry of NlpA-ZZ spheroplasts labeled with 5 nM FITC-conjugated Human IgG; residual fluorescence at Time 30 min
NlpA-ZZ fusion protein [2] = test: flow cytometry of NlpA-ZZ spheroplasts labeled with 5 nM FITC-conjugated Human IgG; residual fluorescence at Time 240 min
NlpA-ZZ fusion protein [3] = test: flow cytometry of NlpA-ZZ spheroplasts labeled with 5 nM FITC-conjugated Human IgG; residual fluorescence at Time 4320 min
NlpA-ZZ fusion protein [4] = test: flow cytometry of NlpA-ZZ spheroplasts labeled with 5 nM FITC-conjugated Human IgG; residual fluorescence at Time 20 min
NlpA-ZZ fusion protein [5] = test: flow cytometry of NlpA-ZZ spheroplasts labeled with 5 nM FITC-conjugated Human IgG; residual fluorescence at Time 60 min
NlpA-ZZ fusion protein [6] = test: flow cytometry of spheroplasts expressing NlpA-ZZ, labeled with 50 nM FITC-conjugated Human IgG
NlpA-ZZ fusion protein [7] = test: flow cytometry of NlpA-ZZ spheroplasts labeled with 5 nM FITC-conjugated Human IgG; residual fluorescence at Time 1440 min
NlpA-ZZ fusion protein [8] = test: flow cytometry of NlpA-ZZ spheroplasts labeled with 5 nM FITC-conjugated Human IgG; residual fluorescence at Time 0 min
NlpA-ZZ fusion protein [9] = test: flow cytometry of NlpA-ZZ spheroplasts labeled with 5 nM FITC-conjugated Human IgG; residual fluorescence at Time 180 min
NlpA-ZZ fusion protein [10] = test: flow cytometry of NlpA-ZZ spheroplasts labeled with 5 nM FITC-conjugated Human IgG; residual fluorescence at Time 10 min
NlpA-ZZ fusion protein [11] = test: flow cytometry of NlpA-ZZ spheroplasts labeled with 5 nM FITC-conjugated Human IgG; residual fluorescence at Time 120 min

“commercial Human IgG antibodies (FITC-conjugated) (antibody)” gave a M (FL1-Height) (NlpA-ZZ fusion protein [1]) of 147, a M (FL1-Height) (NlpA-ZZ fusion protein [2]) of 142 and a M (FL1-Height) (NlpA-ZZ fusion protein [3]) of 154. For the same substance, the M (FL1-Height) (NlpA-ZZ fusion protein [4]) was 143, the M (FL1-Height) (NlpA-ZZ fusion protein [5]) was 136 and the M (FL1-Height) (NlpA-ZZ fusion protein [6]) was 2760. For the same substance, the M (FL1-Height) (NlpA-ZZ fusion protein [7]) was 146, the M (FL1-Height) (NlpA-ZZ fusion protein [8]) was 153 and the M (FL1-Height) (NlpA-80R(scFv)) was 3. It also gave a M (FL1-Height) (NlpA-ZZ fusion protein [9]) of 148, a M (FL1-Height) (NlpA-ZZ fusion protein [10]) of 150 and a M (FL1-Height) (NlpA-ZZ fusion protein [11]) of 133.

From patent US20130303393A1
